Measured values: the domain aggregation screens of Martell et al. (2025)

test: soluble fraction after stress (log2 fold change); higher = more stays soluble; pooled small domains, quantitative proteomics; conditions: stress: 50 degC
Summary of the method: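 Pooled custom libraries of small protein domains were measured in a high-throughput format, with quantitative proteomics as the read-out. Each library was stressed at 50°C. Aggregation propensity is given as the base-two logarithm of the fold change in how much of each protein stays soluble after the stress. Higher values mean a larger share of the protein remains in solution.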

Row | Sequence | soluble fraction (log2)
1 | HMSTVEKDSELGGNFRIASYPTGKGQISEAIRSMIVRAKQVGVNIRLNTEATEEPLRALAPNAVILATG | 0.0325
2 | HMNPSVSSDERILLQKALGILSAEQKQIVMLHAVAGIKHREIAKLLDMPIATVLSKYSRAVNKLRHAMEA | -0.423
3 | HMTPEGAYTVSEIVKVINSFADEYKVPFTMHVSGYKYEEIAQQLGLPIGTVKSRIFFARKRLQELLN | -0.952
4 | HMTTIRQQAEVPLSAAGRRFDQALAEMFPAYSRSRLSGWIKAGAATLDGAPAAPRQLLRGGERVELDVELE | -0.0501
5 | HMNPDMIAGVLKVPAAAGRLRSALFELGVVDDESYDDDGASRLTVTASQSDLERIVAQAGLVFEDVLVERR | -0.0627
6 | HMGTLRPKGTVVFANLPIAADAKEGDMYNISDQFTTTASFKEGAGNVIPAGSNVYRTDDGFWDVL | 0.00637
7 | HMPPSVAETLKRLRRHKSLSLEELAQMSGVSRSMLSQIERDATNPTVATLWRITAALGVSIDEVLGV | -1.87
8 | HMAGVSVTSLTTFWRLAADTPDTPSGADDPSGWSRTEPSIPDGYEGKLYRTIRTIMSDGTATWTSPD | -0.357
9 | HMDAVLMEYDRLLALELTEDPDVYQDLLDKVREQSLGADGRVTDKYREKFDAVATRFDDYEDNYQW | -0.52
10 | HMQSTEQVSVTVTIPPGGELRIDSDTFRVLLNGENVLDKQSGDWLMLSRDLLYLDIESAIGNGLSGNLIYT | 0.0974
11 | HMRPTAWDQISDWLDRHGSIANADVVRIAGLDTLKASKLLTTWREQGLLEPLPGRGKRNMAYVRAI | -0.554
12 | HMIMEVDYGTFMKMTEENAIGRVQMDSTEIIFTDKENTQVYSTGIMYDPDLTQRLYDAGAVFA | -0.986
13 | HMTPLILTAQEGGERLDAFVASQVEDLTRSAAQRLLEQGAVTSGGKPLKKNAKTTPGMVVEVLLPDPQ | 0.251
14 | HMVNIPEIAKKFGKSTSEVFEQIQIGEKHEMEHTNDPKKARKIALDHLSDDMDYYKKLKKLG | 0.27
15 | HMIPSGISEHPISKLPLSMSIIHRLELAGIKTIGDITGENFSRLQEIPRIGKVTAKRILEAIQSYSEQLP | -0.15
16 | HMNQNHFLDSVVEFAKDEASRAFFQKAVKKLGEGLVEEAMGEVKMREADGSVNSRAPYFIALLENWMENR | 0.0128
17 | HMKYPVYLQLADLIERKINKNEYPLGSKIPSERELIDAFGISRMTVRKAIEVLIEKGLLTRQHGKGTYVSQ | -1.29
18 | HMSFEITGDELILRFVKDKGGATTEQIRKHWEASNRGGKSDNNLTNLVKSGKLLRSKDPNGPGSLYTAS | -0.231
19 | HMQTYTYYIAKNDISIGQKITPDMLIEKQVNLGDSKDRYLSREQLETGKYIAVRQIPAGELISSASANE | 0.157

Row | Sequence | soluble fraction (log2)
20 | HMVPVSIYAYNKIKTAILNNELMPGEKLVEASLAETLNMSRTPIREALRQLEQEGFVTYYPQKGSIVSH | -0.657
21 | HMFNKTKVPNFIDMNYYEEIEGNSEYDKFNFADPITKNDDTKAPGTVIDQTPEKGTRIDEEKTVIQLTIA | -0.102
22 | HMPTANFPAMAEALKKQYGPPTGEEETSWTHRLGGVFDIKIQSWNTPQGEMVLRSRGAAMDAGML | 0.439
23 | HMVPDVVGKDYALAQAELEGANLVVAKGSSRYDDTLPAGVVLATDPKVGTVVKPGAKVTVILSK | 0.251
24 | HMDITTIIADVPGPKTQIKVDIKNTSLHIFGGMNFKKEIDIGDNKEIINIKYINGTLTVKLKT | 0.089
25 | HMEYSAAYDRELESIFNLTERGKWEEAEAEVGLLLQQYPEDKTLLRISEWVATQKTILREQAIEDRIRS | 0.186
26 | HMKIEEVIEKLKTDSIISRKEYEDIVRQINPNLSDRTIFWQLAKLQDMGVLQKIGQNSFHVRN | -0.26
27 | HMSVTMPNLVGLDEQTAVTRINSSNLSYGSTNYVHSDHEAGVVFKQSTPAYTEVDEHTKIYIWVSLGPEE | -0.0912
28 | HMVDIGQSIRVELIREGKDSHQAVGYLRDGSMVVVNHGRKLIGSTVEVEITSIVPSSAGKVIFAEYLE | -0.378
29 | HMQNYLLFEEAKNIVNTLNLTNEKDWSEFIKKDFTYKNQIPIFPNQYYKHKGWVDWNDWLGINK | -1.56
30 | HMRGESFSTLVSILQEMSARKAAQVLNGLSEGLAVEVLRALPSDVAGDILGRMDAAKAAALMEQLST | -0.17
31 | HMNNYEGIVKSVSNSNVYIQVAGRTIGYTISPHTIIMVNGKNVPASELMPGQHVSYTNKGSKLSYININS | -0.103
32 | HMENVIYGINGPVVTVRNSRSFSMMEMVFVGNERLVGEVIGITDKITTIQVYEETTGLRPGEPVYGTGSPM | -3.97
33 | HMGIKAADIVTNDIQFNTQAQFDKYKDLYPTLGWGNYDPNKTYTMQGFKNKLKPNELFTGTPNLKIEDT | 0.141
34 | HMVKLSDGIVEHIKSLIMAGRLKPGDKLPPEREFAATLGVSRTALREAVRTLSLMGLLDARQGEGTFVSG | -0.116
35 | HMSPEVEEISIDHLKAGMRILSDLRLPNGTLVAPKGSVVDAHFIKIVENYVISYFGNPFPDRIKVIM | -1.4
36 | HMSDIDIDVENDRAALAIAGGKLNHLVGARGEVLDALQELTRLAVQTSLGERSRLMLDIDNFRSD | -0.00224
37 | HMDFYIVLGVDRAASVSDVKRAYRRLARKYHPDINPGDREAEAFFLRVTEAYETLIDPDRRQDYDVNG | -0.94
38 | HMQAITVNNEGKIFLNTIPVTLEELSSKLESLKSSTPEFPVVIRGDSGSQYQGIMDVLNVVGRLGITQIGL | -0.246
